The source of these data is the supplement of paper PMC9112550, “Optimization of the antimicrobial peptide Bac7 by deep mutational scanning” (BMC Biology, 2022).

For this data set, the system named is Escherichia coli TOP10. The data set is described as follows: shrunken log2 fold change of peptide-encoding DNA abundance (4.5 h post-induction vs induction); higher = less antimicrobial activity (less host growth inhibition). As to conditions: time post-induction: 4.5 h; library: site-saturation at positions 5, 18, 19, 20.
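Note: peptides expressed intracellularly from a pBAD plasmid library in pooled LB shake-flask culture, induced with 0.3% L-arabinose, DNA abundance read by NGS, three biological replicates, DESeq2 with apeglm shrinkage.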

Turning to RRIRSRPPRLPRPRPRPECFPRP, the “shrunken log2 fold change” value is 3.03.

On to RRIRPRPPRLPRPRPRPHFYPRP, for which the “shrunken log2 fold change” value is -0.217.

On to RRIRFRPPRLPRPRPRPCIRPRP, for which the “shrunken log2 fold change” value was -0.0335.

RRIRYRPPRLPRPRPRPQHVPRP: the “shrunken log2 fold change” value is -1.14.

With RRIRKRPPRLPRPRPRPIMWPRP, the “shrunken log2 fold change” value was determined as 0.0599.

Turning to RRIRTRPPRLPRPRPRPSGNPRP, the “shrunken log2 fold change” value was -0.168.

As for RRIRLRPPRLPRPRPRPYHYPRP, the “shrunken log2 fold change” value is -0.16.

RRIRHRPPRLPRPRPRPLQMPRP: the “shrunken log2 fold change” value was -0.147.

As to RRIRWRPPRLPRPRPRPMDNPRP, the “shrunken log2 fold change” value was -0.0894.

For RRIRPRPPRLPRPRPRPYCTPRP, the “shrunken log2 fold change” value stood at 0.164.

Consider RRIRGRPPRLPRPRPRPEQCPRP, for which the “shrunken log2 fold change” value came to 0.0643.

On to RRIRLRPPRLPRPRPRPAKHPRP, for which the “shrunken log2 fold change” value is -0.221.

Turning to RRIRVRPPRLPRPRPRPLFRPRP, the “shrunken log2 fold change” value was -0.134.

For RRIRSRPPRLPRPRPRPYKWPRP, the “shrunken log2 fold change” value is -0.18.

Regarding RRIRHRPPRLPRPRPRPETQPRP, the “shrunken log2 fold change” value is -0.137.

Turning to RRIRLRPPRLPRPRPRPESTPRP, the “shrunken log2 fold change” value is 0.0274.

RRIRFRPPRLPRPRPRPPVLPRP: the “shrunken log2 fold change” value was determined as 0.006.

With RRIRWRPPRLPRPRPRPWTDPRP, the “shrunken log2 fold change” value was -0.0932.

As to RRIRYRPPRLPRPRPRPPQWPRP, the “shrunken log2 fold change” value was found to be 0.204.

On to RRIRPRPPRLPRPRPRPQCEPRP, for which the “shrunken log2 fold change” value is -0.0437.

As to RRIRFRPPRLPRPRPRPSSQPRP, the “shrunken log2 fold change” value was -0.458.

In the case of RRIRARPPRLPRPRPRPDFHPRP, the “shrunken log2 fold change” value was -0.0502.

RRIRVRPPRLPRPRPRPNHFPRP: the “shrunken log2 fold change” value was -0.346.

For RRIRRRPPRLPRPRPRPCPQPRP, the “shrunken log2 fold change” value is 0.0779.

With RRIRQRPPRLPRPRPRPPLNPRP, the “shrunken log2 fold change” value was 0.633.

For RRIRYRPPRLPRPRPRPFCAPRP, the “shrunken log2 fold change” value was -0.415.

As for RRIRTRPPRLPRPRPRPQHLPRP, the “shrunken log2 fold change” value was -0.0898.

As for RRIRGRPPRLPRPRPRPRFDPRP, the “shrunken log2 fold change” value is 0.382.

In the case of RRIRRRPPRLPRPRPRPSIFPRP, the “shrunken log2 fold change” value was -0.192.

RRIRGRPPRLPRPRPRPCRFPRP: the “shrunken log2 fold change” value was 0.116.

With RRIRHRPPRLPRPRPRPNIQPRP, the “shrunken log2 fold change” value is -0.141.

As to RRIRRRPPRLPRPRPRPYALPRP, the “shrunken log2 fold change” value is -0.5.

As to RRIRLRPPRLPRPRPRPLRGPRP, the “shrunken log2 fold change” value is 1.11.

On to RRIRVRPPRLPRPRPRPSLFPRP, for which the “shrunken log2 fold change” value is -0.269.

Consider RRIRRRPPRLPRPRPRPVDYPRP, for which the “shrunken log2 fold change” value is -0.0118.

With RRIRYRPPRLPRPRPRPCRMPRP, the “shrunken log2 fold change” value is -0.0503.

Take RRIRHRPPRLPRPRPRPEYNPRP: the “shrunken log2 fold change” value is -0.329.

As to RRIRARPPRLPRPRPRPIHVPRP, the “shrunken log2 fold change” value was -0.143.

For RRIRQRPPRLPRPRPRPAYLPRP, the “shrunken log2 fold change” value was 0.0774.

Turning to RRIRSRPPRLPRPRPRPHVQPRP, the “shrunken log2 fold change” value turned out to be 0.132.

Take RRIRMRPPRLPRPRPRPKHEPRP: the “shrunken log2 fold change” value worked out at 0.767.

As for RRIRTRPPRLPRPRPRPALCPRP, the “shrunken log2 fold change” value is -0.0776.

With RRIRSRPPRLPRPRPRPSIDPRP, the “shrunken log2 fold change” value is -0.536.

As for RRIRERPPRLPRPRPRPGTLPRP, the “shrunken log2 fold change” value is -0.251.

With RRIRCRPPRLPRPRPRPDNRPRP, the “shrunken log2 fold change” value is -0.132.

On to RRIRNRPPRLPRPRPRPYTTPRP, for which the “shrunken log2 fold change” value was -0.83.

Consider RRIRRRPPRLPRPRPRPVAYPRP, for which the “shrunken log2 fold change” value amounted to 0.263.

Take RRIRHRPPRLPRPRPRPFQPPRP: the “shrunken log2 fold change” value was -0.135.

For the sequence RRIRPRPPRLPRPRPRPGAGPRP, the “shrunken log2 fold change” value came to 0.555.

For RRIRRRPPRLPRPRPRPKEEPRP, the “shrunken log2 fold change” value is -0.00663.

In the case of RRIRNRPPRLPRPRPRPVDSPRP, the “shrunken log2 fold change” value was -0.196.

In the case of RRIRDRPPRLPRPRPRPMPSPRP, the “shrunken log2 fold change” value was 0.026.

Consider RRIRRRPPRLPRPRPRPYSFPRP, for which the “shrunken log2 fold change” value is -0.529.

For the sequence RRIRIRPPRLPRPRPRPICMPRP, the “shrunken log2 fold change” value was -0.407.

Take RRIRGRPPRLPRPRPRPGYAPRP: the “shrunken log2 fold change” value came out at 0.222.

For RRIRLRPPRLPRPRPRPHRFPRP, the “shrunken log2 fold change” value turned out to be 0.0608.

As for RRIRNRPPRLPRPRPRPINYPRP, the “shrunken log2 fold change” value is -0.262.

Regarding RRIRNRPPRLPRPRPRPSQCPRP, the “shrunken log2 fold change” value is -0.13.

Take RRIRKRPPRLPRPRPRPTHAPRP: the “shrunken log2 fold change” value turned out to be 0.505.

As to RRIRYRPPRLPRPRPRPFHNPRP, the “shrunken log2 fold change” value was -0.451.

Turning to RRIRLRPPRLPRPRPRPEQMPRP, the “shrunken log2 fold change” value is 0.126.

On to RRIRPRPPRLPRPRPRPPNAPRP, for which the “shrunken log2 fold change” value amounted to 0.435.

RRIRLRPPRLPRPRPRPSCVPRP: the “shrunken log2 fold change” value is -0.0228.

In the case of RRIRARPPRLPRPRPRPYQAPRP, the “shrunken log2 fold change” value is -0.0488.

Take RRIRLRPPRLPRPRPRPAHVPRP: the “shrunken log2 fold change” value worked out at 0.241.

Turning to RRIRLRPPRLPRPRPRPYQWPRP, the “shrunken log2 fold change” value is -0.241.

Take RRIRQRPPRLPRPRPRPKNRPRP: the “shrunken log2 fold change” value worked out at 0.0773.

With RRIRGRPPRLPRPRPRPCGEPRP, the “shrunken log2 fold change” value came to 0.931.

In the case of RRIRTRPPRLPRPRPRPITVPRP, the “shrunken log2 fold change” value was -0.154.

With RRIRKRPPRLPRPRPRPSFDPRP, the “shrunken log2 fold change” value amounted to 0.301.

As for RRIRMRPPRLPRPRPRPPVLPRP, the “shrunken log2 fold change” value is -0.122.

For RRIRKRPPRLPRPRPRPAEKPRP, the “shrunken log2 fold change” value was found to be 0.477.

Take RRIRMRPPRLPRPRPRPYTPPRP: the “shrunken log2 fold change” value is -0.847.

Consider RRIRQRPPRLPRPRPRPQAVPRP, for which the “shrunken log2 fold change” value stood at 0.00748.

Take RRIRHRPPRLPRPRPRPVFTPRP: the “shrunken log2 fold change” value was -0.392.

On to RRIRARPPRLPRPRPRPNGLPRP, for which the “shrunken log2 fold change” value was -0.0319.

With RRIRGRPPRLPRPRPRPLNNPRP, the “shrunken log2 fold change” value was -0.109.

In the case of RRIRYRPPRLPRPRPRPYIMPRP, the “shrunken log2 fold change” value was -0.223.

For the sequence RRIRKRPPRLPRPRPRPLNDPRP, the “shrunken log2 fold change” value is -0.0546.

As to RRIRFRPPRLPRPRPRPIYDPRP, the “shrunken log2 fold change” value was -0.626.

For the sequence RRIRARPPRLPRPRPRPKNHPRP, the “shrunken log2 fold change” value was -0.125.

Turning to RRIRMRPPRLPRPRPRPLYYPRP, the “shrunken log2 fold change” value is -0.53.

For RRIRQRPPRLPRPRPRPREHPRP, the “shrunken log2 fold change” value is -0.117.

As to RRIRARPPRLPRPRPRPRFEPRP, the “shrunken log2 fold change” value amounted to 0.401.

For RRIRYRPPRLPRPRPRPETRPRP, the “shrunken log2 fold change” value amounted to 0.0147.

Consider RRIRMRPPRLPRPRPRPAGVPRP, for which the “shrunken log2 fold change” value stood at 0.688.

Regarding RRIRERPPRLPRPRPRPNETPRP, the “shrunken log2 fold change” value was -0.0321.

For the sequence RRIRWRPPRLPRPRPRPWFYPRP, the “shrunken log2 fold change” value was -0.705.

For the sequence RRIRQRPPRLPRPRPRPQFDPRP, the “shrunken log2 fold change” value was -0.178.

For RRIRFRPPRLPRPRPRPTMPPRP, the “shrunken log2 fold change” value was 0.0787.

As to RRIRMRPPRLPRPRPRPYKAPRP, the “shrunken log2 fold change” value came out at 0.00361.
